# Measurements taken from patent publication US20190241655A1 (Merck Sharp & Dohme, published 2019).
# Positions count from the first letter of the chain named.
# B1: DX446 (antibody, V domains shown)
# VH: QIQLVQSGPELKKPGETVKISCKASGYTFTNYRMTWVKQAPGKGLKWMGWINTNTGDPTYAEELKGRFAFSSETSASTAYLQINNLKNEDTATYFCAREGFFNYAMDYWGQGTSVTVSS
# VL: DILLTQSPAILSVSPGKRVSFSCRASQSIGTSIHWYQQRTNGSPRLLIKYASESISGIPSRFSGSGSGTDFTLSINSVESEDIADYYCQQSNSWPPTFGAGTKLELK
# notes: Mouse hybridoma anti-ILT3 antibody tested as hybridoma supernatant; also called Anti-ILT3 (DX446)
# B2: DX435 (antibody, V domains shown)
# VH: EVQLQQSGPEMVKPGASVKISCKASGYAFTDYNIHWVKKSHGKSPEWIGHIYPYNKDTVFNQNKTKATLTVDKSTTTAYMDLRSLTSEDSAVYYCARGAVGYFDYWGQGTTLTVSS
# VL: DIQMTQSPASLSASVGETVTITCRASGNIHNFLAWYQQKQGKSPQLLVYNAKTLADGVPSRFSGSGSGTQYSLKINSLQPEDFGSYYCQHFWSYPFTFGAGTKLELK
# notes: Mouse hybridoma anti-ILT3 antibody tested as hybridoma supernatant
# B3: DX439 (antibody, V domains shown)
# VH: EVQLQQPGPELVKPGASVKISCKASGYTFTDYNMHWVRQRHGKSLEWIGHIYPYNGNTVYNQRFKNKATLNVDNFSSTAYMELRSLTSEDSAVYYCARGAVGYFDHWGQGTTLTVSS
# VL: B2 VL with K42R, S85N, K103N
# notes: as for B2
# B4: DX440 (antibody, V domains shown)
# VH: EVQLQQSGPELVKPGASVKISCKASGYTFSDYNMHWVKQSHGKSLKWIGHIFPYIGDTVYNQKFTSKATLTVDNSSSTGYMEIRSLTSEDSAVYYCARGAVGYFDYWGQGTTLTVSS
# VL: B2 VL with F32Y, L46F, S85T, Y94F
# notes: as for B2
# Molecular target: T1, ILT3Fc (human)
# T1 construct: also called ILT3Fc-fusion protein; human ILT3Fc
# Assay: Octet (BLI), ILT3Fc on anti-human Fc biosensors, antibody supernatant 167 nM
# T1 sequence (chain, as listed by the source limits assumed): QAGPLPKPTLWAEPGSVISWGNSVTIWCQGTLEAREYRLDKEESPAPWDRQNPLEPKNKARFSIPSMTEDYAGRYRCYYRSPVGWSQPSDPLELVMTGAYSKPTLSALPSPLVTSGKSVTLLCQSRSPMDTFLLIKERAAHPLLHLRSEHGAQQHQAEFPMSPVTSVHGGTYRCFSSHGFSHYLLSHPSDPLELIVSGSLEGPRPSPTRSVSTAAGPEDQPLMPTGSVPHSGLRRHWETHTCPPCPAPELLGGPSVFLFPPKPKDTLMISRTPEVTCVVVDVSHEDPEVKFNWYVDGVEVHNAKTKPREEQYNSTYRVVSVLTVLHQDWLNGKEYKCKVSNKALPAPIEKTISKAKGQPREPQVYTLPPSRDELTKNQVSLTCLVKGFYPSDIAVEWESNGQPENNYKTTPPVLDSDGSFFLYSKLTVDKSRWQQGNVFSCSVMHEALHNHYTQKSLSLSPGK
row,Binder,binding result
1,B1,binds
2,B2,binds
3,B3,binds
4,B4,binds
